First the molecules themselves.
B1: NRC3_wobSeed73_DR3_A16T_o1 (dsDNA)
DNA 1: GCCAAACTAGGTCACTGAGGTCAAAGTCCGTGCGTAGCGATTGACAGCGTAGAATGAAGG
DNA 2: CCTTCATTCTACGCTGTCAATCGCTACGCACGGACTTTGACCTCAGTGACCTAGTTTGGC
B2: NRC3_wobSeed130_DR5_G24C_o1 (dsDNA)
DNA 1: GCCTCGAAAGGTCGTGCTCAGGTCAGTATACCAAACGCGATTGACAGCGTAGAATGAAGG
DNA 2: CCTTCATTCTACGCTGTCAATCGCGTTTGGTATACTGACCTGAGCACGACCTTTCGAGGC
B3: NRC3_wobSeed52_DR2_C21G_o1 (dsDNA)
DNA 1: GCCCTACTGGGCCATCAGGTGATTGATATCAACGTTGCGATTGACAGCGTAGAATGAAGG
DNA 2: CCTTCATTCTACGCTGTCAATCGCAACGTTGATATCAATCACCTGATGGCCCAGTAGGGC
B4: NRC3_wobSeed136_DR5_T12C_o1 (dsDNA)
DNA 1: GCTAGCCTAGGCCATTCAGGGGCCAGTATAGAAAGCGCGATTGACAGCGTAGAATGAAGG
DNA 2: CCTTCATTCTACGCTGTCAATCGCGCTTTCTATACTGGCCCCTGAATGGCCTAGGCTAGC
B5: NRC3_wobSeed49_DR2_A15T_o1 (dsDNA)
DNA 1: GCCAAACTAGGTCATGAGGTCAAAGTCCGCTTCCCGGCGATTGACAGCGTAGAATGAAGG
DNA 2: CCTTCATTCTACGCTGTCAATCGCCGGGAAGCGGACTTTGACCTCATGACCTAGTTTGGC
B6: NRC3_wobSeed2_DR0_G16C_o1 (dsDNA)
DNA 1: GCCCTAGTTGGTCAACGTCACACACGCTATAGGTACGCGATTGACAGCGTAGAATGAAGG
DNA 2: CCTTCATTCTACGCTGTCAATCGCGTACCTATAGCGTGTGTGACGTTGACCAACTAGGGC
B7: NRC3_wobSeed122_DR5_C24A_o1 (dsDNA)
DNA 1: GCGCTAGTTGGTCAGTAAAAGGTAACACACCGGTCGGCGATTGACAGCGTAGAATGAAGG
DNA 2: CCTTCATTCTACGCTGTCAATCGCCGACCGGTGTGTTACCTTTTACTGACCAACTAGCGC
B8: NRC3_wobSeed121_DR5_T8C_o1 (dsDNA)
DNA 1: GCCAAACCAGGTCACCGGAAGGTCAAAGTCCGCATGGCGATTGACAGCGTAGAATGAAGG
DNA 2: CCTTCATTCTACGCTGTCAATCGCCATGCGGACTTTGACCTTCCGGTGACCTGGTTTGGC
B9: NRC3_wobSeed112_DR4_C22T_o1 (dsDNA)
DNA 1: GCTAGCCTAGGTCAGATCGGGTCAGTATACGCTATAGCGATTGACAGCGTAGAATGAAGG
DNA 2: CCTTCATTCTACGCTGTCAATCGCTATAGCGTATACTGACCCGATCTGACCTAGGCTAGC
B10: NRC3_wobSeed112_DR4_T8G_o1 (dsDNA)
DNA 1: GCTAGCCGAGGTCAGATCGGGCCAGTATACGCTATAGCGATTGACAGCGTAGAATGAAGG
DNA 2: CCTTCATTCTACGCTGTCAATCGCTATAGCGTATACTGGCCCGATCTGACCTCGGCTAGC
B11: NRC3_wobSeed27_DR1_G18A_o1 (dsDNA)
DNA 1: GCACTCGGAGGACAAAGATCAGAGCTACGCCAGTGAGCGATTGACAGCGTAGAATGAAGG
DNA 2: CCTTCATTCTACGCTGTCAATCGCTCACTGGCGTAGCTCTGATCTTTGTCCTCCGAGTGC
B12: NRC3_wobSeed111_DR4_G11A_o1 (dsDNA)
DNA 1: GCCGAACTAGATCAGAACAGGACAGTGAAGGATGATGCGATTGACAGCGTAGAATGAAGG
DNA 2: CCTTCATTCTACGCTGTCAATCGCATCATCCTTCACTGTCCTGTTCTGATCTAGTTCGGC
B13: NRC3_wobSeed110_DR4_T19A_o1 (dsDNA)
DNA 1: GCTCTGCTAGGTCAACGAAGGTCAGCTAATCTGCTAGCGATTGACAGCGTAGAATGAAGG
DNA 2: CCTTCATTCTACGCTGTCAATCGCTAGCAGATTAGCTGACCTTCGTTGACCTAGCAGAGC
B14: NRC3_wobSeed17_DR0_G16A_o1 (dsDNA)
DNA 1: GCATATGTAGGTTAGAGTCATTCAGAAAGTAGGGAAGCGATTGACAGCGTAGAATGAAGG
DNA 2: CCTTCATTCTACGCTGTCAATCGCTTCCCTACTTTCTGAATGACTCTAACCTACATATGC
B15: NRC3_wobSeed100_DR4_A17T_o1 (dsDNA)
DNA 1: GCCCTACTGGGCCACGTAAGGTCATTGATTCAGTGAGCGATTGACAGCGTAGAATGAAGG
DNA 2: CCTTCATTCTACGCTGTCAATCGCTCACTGAATCAATGACCTTACGTGGCCCAGTAGGGC
B16: NRC3_wobSeed103_DR4_A13T_o1 (dsDNA)
DNA 1: GCGCATATAGGTTATACAAGGTGAAAGTCCGATTGTGCGATTGACAGCGTAGAATGAAGG
DNA 2: CCTTCATTCTACGCTGTCAATCGCACAATCGGACTTTCACCTTGTATAACCTATATGCGC
B17: NRC3_wobSeed103_DR4_A16T_o1 (dsDNA)
DNA 1: GCGCATATAGGTAATTCAAGGTGAAAGTCCGATTGTGCGATTGACAGCGTAGAATGAAGG
DNA 2: CCTTCATTCTACGCTGTCAATCGCACAATCGGACTTTCACCTTGAATTACCTATATGCGC
B18: NRC3_wobSeed103_DR4_G21A_o1 (dsDNA)
DNA 1: GCGCATATAGGTAATACAAGATGAAAGTCCGATTGTGCGATTGACAGCGTAGAATGAAGG
DNA 2: CCTTCATTCTACGCTGTCAATCGCACAATCGGACTTTCATCTTGTATTACCTATATGCGC
B19: NRC3_wobSeed85_DR3_A16C_o1 (dsDNA)
DNA 1: GCCGTCCAAGGTCAGCGAGGTCAGTGAATGCCGAGTGCGATTGACAGCGTAGAATGAAGG
DNA 2: CCTTCATTCTACGCTGTCAATCGCACTCGGCATTCACTGACCTCGCTGACCTTGGACGGC
B20: NRC3_wobSeed138_DR5_T12G_o1 (dsDNA)
DNA 1: GCGATACAGGGGCAGCTAGAGGCCAGAGTATGGAAAGCGATTGACAGCGTAGAATGAAGG
DNA 2: CCTTCATTCTACGCTGTCAATCGCTTTCCATACTCTGGCCTCTAGCTGCCCCTGTATCGC
B21: NRC3_wobSeed72_DR2_G18C_o1 (dsDNA)
DNA 1: GCTCGAGTAGGTTACGGCGGCATTCAGGGATGAAGAGCGATTGACAGCGTAGAATGAAGG
DNA 2: CCTTCATTCTACGCTGTCAATCGCTCTTCATCCCTGAATGCCGCCGTAACCTACTCGAGC
B22: NRC3_wobSeed102_DR4_C12T_o1 (dsDNA)
DNA 1: GCCCTAGCAGGTCAATCTGGGTCACTCAAGGCTTGAGCGATTGACAGCGTAGAATGAAGG
DNA 2: CCTTCATTCTACGCTGTCAATCGCTCAAGCCTTGAGTGACCCAGATTGACCTGCTAGGGC
B23: NRC3_wobSeed102_DR4_G21A_o1 (dsDNA)
DNA 1: GCCCTAGCAGGCCAATCTGGATCACTCAAGGCTTGAGCGATTGACAGCGTAGAATGAAGG
DNA 2: CCTTCATTCTACGCTGTCAATCGCTCAAGCCTTGAGTGATCCAGATTGGCCTGCTAGGGC
B24: NRC3_wobSeed120_DR4_A17T_o1 (dsDNA)
DNA 1: GCCCGAGTAGGTTACGTGGGGGCATTCAGTGCGAATGCGATTGACAGCGTAGAATGAAGG
DNA 2: CCTTCATTCTACGCTGTCAATCGCATTCGCACTGAATGCCCCCACGTAACCTACTCGGGC
B25: NRC3_wobSeed119_DR4_T21G_o1 (dsDNA)
DNA 1: GCGGAACGAGGGCATTCGAGGTGATAGCATGGCGATGCGATTGACAGCGTAGAATGAAGG
DNA 2: CCTTCATTCTACGCTGTCAATCGCATCGCCATGCTATCACCTCGAATGCCCTCGTTCCGC
B26: NRC3_wobSeed119_DR4_A9T_o1 (dsDNA)
DNA 1: GCGGAACGTGGGCATTCGAGTTGATAGCATGGCGATGCGATTGACAGCGTAGAATGAAGG
DNA 2: CCTTCATTCTACGCTGTCAATCGCATCGCCATGCTATCAACTCGAATGCCCACGTTCCGC
B27: NRC3_wobSeed108_DR4_T23C_o1 (dsDNA)
DNA 1: GCGCGACTGGGGCAAAGCAGGTCACCATAAGGTTGGGCGATTGACAGCGTAGAATGAAGG
DNA 2: CCTTCATTCTACGCTGTCAATCGCCCAACCTTATGGTGACCTGCTTTGCCCCAGTCGCGC
B28: NRC3_wobSeed15_DR0_C13A_o1 (dsDNA)
DNA 1: GCCGAACTAGGTAAAGGACAGTGAATCTCCGCACGCGCGATTGACAGCGTAGAATGAAGG
DNA 2: CCTTCATTCTACGCTGTCAATCGCGCGTGCGGAGATTCACTGTCCTTTACCTAGTTCGGC
B29: NRC3_wobSeed114_DR4_T18G_o1 (dsDNA)
DNA 1: GCAATACAGGGTCATCGGAGGCCAGAGTACGCACAGGCGATTGACAGCGTAGAATGAAGG
DNA 2: CCTTCATTCTACGCTGTCAATCGCCTGTGCGTACTCTGGCCTCCGATGACCCTGTATTGC
B30: NRC3_wobSeed37_DR1_A25G_o1 (dsDNA)
DNA 1: GCCGTCCAAGGTCAAAGGTCAGTGGAGAGATGACGGGCGATTGACAGCGTAGAATGAAGG
DNA 2: CCTTCATTCTACGCTGTCAATCGCCCGTCATCTCTCCACTGACCTTTGACCTTGGACGGC
B31: NRC3_wobSeed118_DR4_G15C_o1 (dsDNA)
DNA 1: GCTTACCAAGGTGACCTGAGGTCGTTGATCCAACTCGCGATTGACAGCGTAGAATGAAGG
DNA 2: CCTTCATTCTACGCTGTCAATCGCGAGTTGGATCAACGACCTCAGGTCACCTTGGTAAGC
B32: NRC3_wobSeed118_DR4_A8G_o1 (dsDNA)
DNA 1: GCTTACCGAGGTGAGCTGAGGTCGTTGATCCAACTCGCGATTGACAGCGTAGAATGAAGG
DNA 2: CCTTCATTCTACGCTGTCAATCGCGAGTTGGATCAACGACCTCAGCTCACCTCGGTAAGC

Drawing on article PMC6555819, “Comprehensive study of nuclear receptor DNA binding provides a revised framework for understanding receptor specificity”, this text covers binding signal for 32 molecules.

THRa:RXRa, sequence (P10827 other isoform, or with tags, fused parts or gaps, chain 1 of 2): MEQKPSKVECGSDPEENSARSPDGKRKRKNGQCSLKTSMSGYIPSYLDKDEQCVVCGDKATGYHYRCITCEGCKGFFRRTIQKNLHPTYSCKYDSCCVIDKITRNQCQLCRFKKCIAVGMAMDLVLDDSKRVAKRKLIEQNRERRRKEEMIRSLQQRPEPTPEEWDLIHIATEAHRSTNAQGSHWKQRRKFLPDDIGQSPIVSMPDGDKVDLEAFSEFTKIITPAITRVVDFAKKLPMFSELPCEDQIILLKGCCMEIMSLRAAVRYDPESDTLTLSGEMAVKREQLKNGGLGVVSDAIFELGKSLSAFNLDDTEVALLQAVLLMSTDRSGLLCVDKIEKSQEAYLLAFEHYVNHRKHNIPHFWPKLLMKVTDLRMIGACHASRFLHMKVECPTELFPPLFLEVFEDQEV
THRa:RXRa, sequence (P19793 whole entry, chain 2 of 2): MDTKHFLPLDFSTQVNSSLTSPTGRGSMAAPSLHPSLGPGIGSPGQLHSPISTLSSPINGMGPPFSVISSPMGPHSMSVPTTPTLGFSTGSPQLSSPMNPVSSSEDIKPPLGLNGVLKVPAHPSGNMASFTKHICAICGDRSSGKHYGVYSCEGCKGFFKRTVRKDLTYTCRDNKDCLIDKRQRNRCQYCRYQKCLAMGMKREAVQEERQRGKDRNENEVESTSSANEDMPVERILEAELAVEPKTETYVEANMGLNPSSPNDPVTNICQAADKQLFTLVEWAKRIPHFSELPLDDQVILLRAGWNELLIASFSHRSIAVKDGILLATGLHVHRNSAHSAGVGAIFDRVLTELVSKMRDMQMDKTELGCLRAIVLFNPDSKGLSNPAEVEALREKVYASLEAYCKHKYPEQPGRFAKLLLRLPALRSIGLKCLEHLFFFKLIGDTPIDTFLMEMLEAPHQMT

The series addresses THRa:RXRa (Homo sapiens, UniProt P10827;P19793 full;full). In words: no ligand; PBM; 90 nM : 90 nM RXRa; PBS pH 7.4, 2% milk, 0.02% Triton X-100, 1 mM DTT, BSA, 0.4 mg/ml salmon testes DNA. As to conditions: tags: His kept;His cleaved; copies: 1;1; label: surface-attached array probe.
For B1, the binding signal is 5.07 PBM z-score against 500 random probes. Then B2, with 4.84 PBM z-score against 500 random probes. Then B3, with 0.39 PBM z-score against 500 random probes. Then B4, with 0.47 PBM z-score against 500 random probes. For the molecule B5, the binding signal was 4.8 PBM z-score against 500 random probes. Then B6, with 0.39 PBM z-score against 500 random probes; and B7, with 0.45 PBM z-score against 500 random probes. Regarding B8, the binding signal was 4.95 PBM z-score against 500 random probes. Then B9, with 5.04 PBM z-score against 500 random probes; and B10, with 4.92 PBM z-score against 500 random probes; and B11, with 0.36 PBM z-score against 500 random probes. Then B12, with 0.34 PBM z-score against 500 random probes; and B13, with 5.01 PBM z-score against 500 random probes. For the molecule B14, the binding signal was 0.23 PBM z-score against 500 random probes. Then B15, with 4.98 PBM z-score against 500 random probes.

On to B16, for which the binding signal was 5.07 PBM z-score against 500 random probes. Then B17, with 4.81 PBM z-score against 500 random probes. In the case of B18 it was 0.11 PBM z-score against 500 random probes; in that of B19, 4.81 PBM z-score against 500 random probes; in that of B20, 0.48 PBM z-score against 500 random probes. In the case of B21 it was 0.41 PBM z-score against 500 random probes; in that of B22, 5.18 PBM z-score against 500 random probes. In the case of B23, the binding signal is 0.26 PBM z-score against 500 random probes. Then B24, with 4.87 PBM z-score against 500 random probes; and B25, with 5.22 PBM z-score against 500 random probes; and B26, with 0.25 PBM z-score against 500 random probes. For B27, the binding signal was 4.79 PBM z-score against 500 random probes. In the case of B28 it was 0.15 PBM z-score against 500 random probes; in that of B29, 5.17 PBM z-score against 500 random probes; in that of B30, 5.12 PBM z-score against 500 random probes. Then B31, with 5.05 PBM z-score against 500 random probes; and B32, with 5.02 PBM z-score against 500 random probes.
